± gives the standard deviation.
Test: protein stability index of a GFP-peptide fusion (GPS, HEK-293T) (PSI 1-6); higher = more stable
Details: c terminus: a fixed tail appended
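Also: 24-mer peptide tiles fused after GFP, lentivirally expressed, FACS-sorted into six equal bins by GFP/DsRed ratio, decoded by Illumina sequencing, PSI is the read-weighted mean bin number.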

Row | Sequence | protein stability index (treatment: DMSO) | protein stability index (treatment: MLN4924 1 uM, 8 h)
1 | CEEWSFFHAYYYCFITLTTIGFGD [KCNK9] | 3.33 ± 0.098 | 2.96 ± 0.37
2 | CEFSSERGPRMCRFIRERDRAVND [CDC25B] | 3.51 ± 0.22 | 3.52 ± 0.17
3 | CEKRCSYCNFNKYIPRRLEEAAMQ [RSAD1] | 2.4 ± 0.028 | 2.6 ± 0.31
4 | CFALIPKAPKKDVIKMLVNDNKVL [EFHC1] | 2.28 ± 0.44 | 2.43 ± 0.53
5 | CFRSLAASSPSIRQKKLMHKLQEE [CCDC70] | 3.22 ± 0.15 | 3.33 ± 0.046
6 | CHCLKGFTLNPDKKTCRRINYCAL [MATN2] | 2.5 ± 0.24 | 2.14 ± 0.18
7 | CHELLGHVPLLAEPSFAQFSQEIG [TPH1] | 3.1 ± 0.27 | 3.02 ± 0.26
8 | CHPDDQFTTSILRHWCMKHDELLA [INTS3] | 3.03 ± 0.28 | 3.06 ± 0.41
9 | CHRHYHSMEVFTHYDLLNLNGTKV [LOXL2] | 2.21 ± 0.12 | 1.99 ± 0.25
10 | CIDFNKNLNEDDTFLVFSKAELGA | 2.88 ± 0.63 | 2.81 ± 0.24
11 | CLETLPEFRDDRDLVMALSAGGHG [KCNA4] | 3.68 ± 0.26 | 3.51 ± 0.34
12 | CLQQKQVVAEAQTRVSQLGLQVEG [LRRC45] | 3.86 ± 0.24 | 3.8 ± 0.38
13 | CLTQSTAAPAVRASSSPVTLRQKT [SLA] | 4.02 ± 0.35 | 4.35 ± 0.052
14 | CQVALNFANEEEAKKFRKAVTDLL [WASL] | 1.91 ± 0.35 | 2.53 ± 0.84
15 | DAPLPGSKAKPKPPKQAQKEQRKQ [TBC1D10A] | 5.45 ± 0.087 | 5.31 ± 0.18
16 | DDATLSRLELERKIESLMDEIEFL [PRPH] | 4 ± 0.23 | 3.88 ± 0.28
17 | DDRVLSSLVRDTIARVHGTFGAAA [POP5] | 2.89 ± 0.29 | 2.96 ± 0.23
18 | DDSKFPIEDTPLVPVSFIFIFTFV [PCDHGA10] | 3.32 ± 0.36 | 2.09 ± 0.062
19 | DEDDVDQELANIDPTWIESPKTNG [SRPK2] | 5.23 ± 0.63 | 5.2 ± 0.36
20 | DEELGGSSRVPVGGGPEATLSISD [ZBTB22] | 5.37 ± 0.18 | 5.42 ± 0.06
21 | DEGEEFDDWEDDYDYPEEEQLSGA [EID1] | 5.39 ± 0.22 | 5.3 ± 0.22
22 | DENYNLLPHGVNFQDAIFPDTQEN [CCDC3] | 4.92 ± 0.29 | 5.06 ± 0.21
23 | DEPTFKVLLKTADPRYELPSRKYI [ZBED1] | 2.81 ± 0.26 | 3.19 ± 0.4

Row | Sequence | protein stability index (treatment: DMSO) | protein stability index (treatment: MLN4924 1 uM, 8 h)
24 | DEQEKGIVTKFYQLSATGQKLYVR [FAN1] | 2.92 ± 0.22 | 2.94 ± 0.54
25 | DGDIPNIPAEENASTSTPSSTLVR [FAM189A2] | 5.47 ± 0.2 | 5.55 ± 0.15
26 | DGKLQLLQKLLSGRSREELDELTG [FEM1A] | 3.24 ± 0.31 | 3.29 ± 0.26
27 | DGRQLRKMLRKEAAARCVVLDCRP [DUSP5] | 2.69 ± 0.24 | 3.07 ± 0.23
28 | DHPGIHEPLEPEVKYVGNMHGNEA [CPN1] | 4.98 ± 0.56 | 5.08 ± 0.19
29 | DHPIVETLRQKAEADKNDKAVKDL [HSP90AB1] | 5.58 ± 0.29 | 5.64 ± 0.14
30 | DIFPELDDILYHVKGMQRIVNQWS [DLC1] | 2.42 ± 0.13 | 2.49 ± 0.12
31 | DIYKQECSSRPLQKGSHPMCKEHE [TRIM63] | 4.49 ± 0.24 | 4.67 ± 0.23
32 | DKWVNDPHRMDRRLLALIYLAHAS [GOLPH3] | 2.63 ± 0.91 | 2.1 ± 0.31
33 | DLCLLYPPFMIALACLHVACVVQQ [CCNC] | 3.11 ± 0.28 | 3.12 ± 0.24
34 | DLDANLRKLNSRLFVIRGQPADVF [CRY1] | 2.07 ± 0.29 | 2.55 ± 0.4
35 | DLGLAPRELAERGVRIVSRGRTQL [PCDHGA10] | 3.75 ± 0.16 | 3.81 ± 0.25
36 | DLSDNRNEDPLVLLAWRCTKLSLL [FBXO33] | 2.54 ± 0.38 | 2.22 ± 0.24
37 | DMFDADGGGDISVKELGTVMRMLG [TNNC2] | – | 2.58 ± 0.16
38 | DMIYVSGGFDGSRRHTSMERYDPN [KLHL12] | 3.85 ± 0.15 | 4 ± 0.3
39 | DNDRTTPSDLDSTGNSLNEPEEPS [DLC1] | 5.61 ± 0.21 | 5.63 ± 0.11
40 | DNEYAYLKAIIFFDPDAKGLSDPG [HNF4A] | 1.92 ± 0.19 | 2.14 ± 0.092
41 | DPDECGSDYISEFRFAPNHTKELE [EPB41L3] | 2.91 ± 0.91 | 3.67 ± 0.79
42 | DPGLGEGPALWLRSTCVYVCALSA [PLEKHN1] | 2.55 ± 0.045 | 2.09 ± 0.38
43 | DRGSCVSTTEGIQLAKELGATYLE [RHOBTB3] | 4.45 ± 0.14 | 4.47 ± 0.24
44 | DSGQYWPSVYHAMPSPCSCMSFNP [WDFY2] | 2.37 ± 0.19 | 2.31 ± 0.44
45 | DSHVSSCSEDWVGYQRKCYFISTV [CD69] | 2.46 ± 0.88 | 2.65 ± 0.6
46 | DSMYGECRTYIIHYYLMDDTVEIR [EFHC1] | 2.35 ± 0.6 | 2.6 ± 0.69

Row | Sequence | protein stability index (treatment: DMSO) | protein stability index (treatment: MLN4924 1 uM, 8 h)
47 | DTGHDSDKSDQSLPNASADSLGGS [TRAF3IP2] | 5.35 ± 0.42 | 5.51 ± 0.18
48 | DTSKQKKMETMYPFIVTLEGNALQ [ZNF449] | 3.12 ± 0.34 | 2.85 ± 0.12
49 | DVPTIQEKVNEGKYRSYEEFKADA [ZMYND11] | 5.21 ± 0.3 | 5.26 ± 0.15
50 | DVTSGDHGDYFRLLLPGIYTVSAT [CPN1] | 2.29 ± 0.57 | 2.02 ± 0.23
51 | DVVCKNQDELRNRSVKVICLGSLA [FAN1] | 2.72 ± 0.26 | 2.98 ± 0.2
52 | DWNEWRDYHLLHPVENIPEIILYW [SLC25A25] | 2.35 ± 0.51 | 2.2 ± 0.12
53 | DWVVVKEPVIKVAAIDNGLAFPLK [PI4K2A] | 2.52 ± 0.43 | 2.94 ± 0.29
54 | DYFISYGIEHAQCVPPSEFSEPSF [ETS1] | 2.49 ± 0.26 | 2.67 ± 0.18
55 | DYFPSEDFYRCGYCKNESGSRSNG [ATE1] | 3.07 ± 0.32 | 3.35 ± 0.49
56 | DYRPMNHEAFKDELKTFRLKTRSW [CDC25B] | 3.46 ± 0.27 | 3.41 ± 0.25
57 | EAKSAQPADGWKGERPRSEEDNEL [GCH1] | 5.56 ± 0.098 | 5.35 ± 0.16
58 | EATQFLKQILDGVHYLHSKRIAHF [DAPK3] | 2.9 ± 0.44 | 2.92 ± 0.56
59 | ECFMCSDCGLNLKQRGYFFLDERL [PDLIM4] | 2.26 ± 0.32 | 2.08 ± 0.34
60 | EDDAQSRRDEQDDDDKGDSKETRL [GOLPH3] | 5.54 ± 0.21 | 5.66 ± 0.17
61 | EDEDEDEDEDEDKEEEEEDCSEEY [TAF7L] | 5.65 ± 0.31 | 5.58 ± 0.13
62 | EDQHRLYQQIKAGAYDFPSPEWDT [CAMK2D] | 4.36 ± 0.26 | 4.42 ± 0.21
63 | EDQTEYLEERRVKEVVKKHSQFIG [HSP90AB1] | 4.11 ± 0.16 | 4.93 ± 0.17
64 | EDTSNDESSILGTDIDLQTIDNDI [M1AP] | 5.56 ± 0.093 | 5.56 ± 0.18
65 | EEALRKNTEEQLEIALAPYQHLEE [MTUS2] | 5.27 ± 0.18 | 5.22 ± 0.23
66 | EEEGGEEEEEAAMYEEEMEREEIT [FAM50A] | 5.6 ± 0.13 | 5.71 ± 0.11
67 | EEEGIETQYFAELLMTSGVVLCEG [CNOT7] | 3.27 ± 0.24 | 3.39 ± 0.12
68 | EEEGPSTFPDLESEFQAALSRKVA [MAGEA3] | 4.95 ± 0.22 | 5.12 ± 0.22
69 | EEEISETGELVGPFVSAMPTPMPH [ZBED2] | 5.1 ± 0.2 | 5.17 ± 0.15

Row | Sequence | protein stability index (treatment: DMSO) | protein stability index (treatment: MLN4924 1 uM, 8 h)
70 | EEEPGVRNGMASEGLNSSLCSPGH [PSD2] | 5.1 ± 0.23 | 5.26 ± 0.13
71 | EEKAFESVIEPVQESSFRSRKIAV [MIA2] | 4.31 ± 0.16 | 4.11 ± 0.22
72 | EELCAQSARCVVSFNILVEDRVKL [PCDHGA10] | 2.57 ± 0.19 | 2.21 ± 0.4
73 | EEREEGPPRIPQADQWKSSNKSLV [RHOBTB1] | 4.99 ± 0.22 | 5.08 ± 0.29
74 | EETESSDDVEVLTLKKFKGDLAYR [C8orf76] | 4.71 ± 0.19 | 4.61 ± 0.16
75 | EFKADAQLLLHNTVIFYGADSEQA [ZMYND11] | 3.06 ± 0.32 | 3.32 ± 0.23
76 | EFKSSFSQSFSLYVKYQVAIHQDP [ATE1] | 2.63 ± 0.95 | 2.52 ± 0.95
77 | EGASSDNGCEVKNRKSILSRHLNS [PHTF1] | 4.74 ± 0.46 | 4.68 ± 0.16
78 | EGLYEQAFQLLRRFVQAEGRRATL [TRADD] | 2.28 ± 0.13 | 2.23 ± 0.54
79 | EGYTPLMEAAREGHEEMVALLLGQ [ANKRD17] | 4.07 ± 0.32 | 4.07 ± 0.22
80 | EHPFLVNLWYSFQDEEDMFMVVDL [STK32A] | 2.9 ± 0.73 | 2.63 ± 0.58
81 | EHPNVVRLMDVCATSRTDREIKVT [CDK4] | 3.93 ± 0.36 | 4.14 ± 0.38
82 | EIKLVSDVTADSKVLEALKLKGAE [PLD5] | 4.31 ± 0.41 | 4.34 ± 0.51
83 | EKAFSYRQMAFDFARVKKGADGVM [SNAP91] | 2.67 ± 0.16 | 2.86 ± 0.31
84 | EKQELHRNMLGLLGNVAEVKELRP [ZER1] | 3.74 ± 0.16 | 4.04 ± 0.31
85 | ELAEHRCHPVERGIKSKEAEEYRL [PSD2] | 4.89 ± 0.25 | 4.64 ± 0.36
86 | ELDAIIEEVDEDGSGTIDFEEFLV [TNNC2] | 4.4 ± 0.22 | 4.33 ± 0.23
87 | ELERAQHELLLGSLQQQHQADLEL [FBF1] | 4.15 ± 0.21 | 4.49 ± 0.28
88 | ELGKGAFSVVRRCMKIPTGQEYAA [CAMK2D] | 2.46 ± 0.21 | 2.2 ± 0.29
89 | ELKLGRKVPESLVRSLRGEEPVPR [LURAP1L] | 3.85 ± 0.25 | 4.16 ± 0.33
90 | ELREACDYLCISFEYSTIKCRDLS [BTBD10] | 3.06 ± 0.21 | 3.13 ± 1
